Reference: paper PMC314469, “Protein Interaction Networks by Proteome Peptide Scanning” (PLoS Biology, 2004)

T1: Myo5 SH3 (MYO5_YEAST), Q04439
T1 chain: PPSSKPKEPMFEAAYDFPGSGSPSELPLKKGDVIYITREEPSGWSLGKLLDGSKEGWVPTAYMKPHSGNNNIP

T2: Boi1 SH3 (BOI1_YEAST), P38041
T2 chain: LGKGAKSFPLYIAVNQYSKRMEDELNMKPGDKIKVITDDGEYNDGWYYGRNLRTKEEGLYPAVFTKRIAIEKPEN

T3: Rvs167 SH3 (RV167_YEAST), P39743
T3 chain: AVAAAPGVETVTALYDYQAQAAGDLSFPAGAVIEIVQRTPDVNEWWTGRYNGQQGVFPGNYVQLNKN

T4: Yhr016c SH3 (YSC84_YEAST), P32793
T4 chain: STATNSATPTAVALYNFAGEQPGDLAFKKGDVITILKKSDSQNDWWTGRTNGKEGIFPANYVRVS

T5: Boi2 SH3 (BOI2_YEAST), P39969
T5 chain: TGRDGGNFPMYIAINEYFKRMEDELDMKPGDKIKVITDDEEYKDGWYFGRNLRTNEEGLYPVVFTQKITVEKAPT

T6: Yfr024 SH3 (LSB3_YEAST), P43603
T6 chain: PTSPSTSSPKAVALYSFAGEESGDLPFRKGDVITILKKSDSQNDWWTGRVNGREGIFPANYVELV


Legend:
Test in all cases: SPOT array
[1] = molecular target: T1, Myo5 SH3 (MYO5_YEAST), Q04439
[2] = molecular target: T2, Boi1 SH3 (BOI1_YEAST), P38041
[3] = molecular target: Sho1 SH3 (SHO1_YEAST), P40073
Sequence of Sho1 SH3 (SHO1_YEAST), P40073 (P40073 295-366): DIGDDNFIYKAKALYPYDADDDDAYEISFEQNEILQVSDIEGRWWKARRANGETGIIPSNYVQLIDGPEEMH

[4] = molecular target: T3, Rvs167 SH3 (RV167_YEAST), P39743
[5] = molecular target: T4, Yhr016c SH3 (YSC84_YEAST), P32793
[6] = molecular target: T5, Boi2 SH3 (BOI2_YEAST), P39969
[7] = molecular target: T6, Yfr024 SH3 (LSB3_YEAST), P43603

Row | Binder | normalised SPOT signal, Boehringer light units (BLU); mean over the file's lines of this peptide [1] | normalised SPOT signal, Boehringer light units (BLU); mean over the file's lines of this peptide [2] | normalised SPOT signal, Boehringer light units (BLU); mean over the file's lines of this peptide [3] | normalised SPOT signal, Boehringer light units (BLU); mean over the file's lines of this peptide [4] | normalised SPOT signal, Boehringer light units (BLU); mean over the file's lines of this peptide [5] | normalised SPOT signal, Boehringer light units (BLU); mean over the file's lines of this peptide [6] | normalised SPOT signal, Boehringer light units (BLU); mean over the file's lines of this peptide [7]
1 | IFVTRYLPYFPIMY [YBL066C 354-367] | 157 | 60.7 | 115 | 373 | 180 | 1150 | 674
2 | INIAKAHPNFPIAL [YKL182W 717-730] | 196 | 53.5 | 42.9 | 10.4 | 2.8 | 20.4 | 0
3 | IGSPRHAPSRPDSI [YOL138C 1121-1134] | 193 | 182 | 18.4 | 124 | 57.9 | 28.1 | 1010
4 | ILAVKKNPQSPMYT [YER126C 197-210] | 175 | 128 | 25.9 | 26.4 | 22.6 | 26.2 | 69.6
5 | IKYFKKFPKDPLAM [YPR189W 306-319] | 237 | 132 | 276 | 85.2 | 58.6 | 9.4 | 304
6 | INNNKMRPHLPPLS [YHR102W 535-548] | 1000 | 1310 | 649 | 1550 | 1230 | 646 | 4850
7 | IGKSKSAPPIPEDT [YJL095W 1392-1405] | 244 | 74.3 | 6.7 | 26 | 12.5 | 58.9 | 42.9
8 | INNTRLSPNSPTPP [YER164W 1330-1343] | 140 | 58.4 | 42.9 | 31.5 | 7.1 | 6.8 | 58.4
9 | ILERKNIPRQPAIR [YDL034W 13-26] | 603 | 1780 | 99.1 | 138 | 35.3 | 19.9 | 354
10 | ILEGKFEPVIPREW [YCL047C 191-204] | 93.2 | 53.6 | 9.5 | 80 | 40.5 | 71.3 | 82.5

Continued, values first:

Row | normalised SPOT signal, Boehringer light units (BLU); mean over the file's lines of this peptide [1] | normalised SPOT signal, Boehringer light units (BLU); mean over the file's lines of this peptide [2] | normalised SPOT signal, Boehringer light units (BLU); mean over the file's lines of this peptide [3] | normalised SPOT signal, Boehringer light units (BLU); mean over the file's lines of this peptide [4] | normalised SPOT signal, Boehringer light units (BLU); mean over the file's lines of this peptide [5] | normalised SPOT signal, Boehringer light units (BLU); mean over the file's lines of this peptide [6] | normalised SPOT signal, Boehringer light units (BLU); mean over the file's lines of this peptide [7] | Binder
11 | 246 | 121 | 94.3 | 213 | 84.6 | 42.4 | 813 | IMDAKFHPFKPQLF [YMR049C 642-655]
12 | 322 | 327 | 100 | 240 | 55.5 | 149 | 348 | ILKNRMNPEKPYEL [YBL034C 850-863]
13 | 17700 | 1330 | 223 | 1150 | 1780 | 416 | 8250 | IKMSRSPPRPPSLK [YDR243C 237-250]
14 | 3670 | 227 | 38.5 | 17600 | 3210 | 29 | 3560 | ILPPRIVPAIPKKA [YNL064C 352-365]
15 | 340 | 152 | 5680 | 457 | 1500 | 16.2 | 1840 | ILFERILPILPVES [YOL081W 29-42]
16 | 184 | 100 | 19 | 50.3 | 33.2 | 23.2 | 12.1 | INGEKASPFLPSSL [YNL023C 312-325]
